Data on 3 molecules can be found in patent publication US20210186964, “METHODS OF TREATING CANCERS” (Dana-Farber Cancer Institute, Inc., published 2021).

One data set deals with T1, USP1 (UniProt O94782 SEQ:1-770).
T1 sequence: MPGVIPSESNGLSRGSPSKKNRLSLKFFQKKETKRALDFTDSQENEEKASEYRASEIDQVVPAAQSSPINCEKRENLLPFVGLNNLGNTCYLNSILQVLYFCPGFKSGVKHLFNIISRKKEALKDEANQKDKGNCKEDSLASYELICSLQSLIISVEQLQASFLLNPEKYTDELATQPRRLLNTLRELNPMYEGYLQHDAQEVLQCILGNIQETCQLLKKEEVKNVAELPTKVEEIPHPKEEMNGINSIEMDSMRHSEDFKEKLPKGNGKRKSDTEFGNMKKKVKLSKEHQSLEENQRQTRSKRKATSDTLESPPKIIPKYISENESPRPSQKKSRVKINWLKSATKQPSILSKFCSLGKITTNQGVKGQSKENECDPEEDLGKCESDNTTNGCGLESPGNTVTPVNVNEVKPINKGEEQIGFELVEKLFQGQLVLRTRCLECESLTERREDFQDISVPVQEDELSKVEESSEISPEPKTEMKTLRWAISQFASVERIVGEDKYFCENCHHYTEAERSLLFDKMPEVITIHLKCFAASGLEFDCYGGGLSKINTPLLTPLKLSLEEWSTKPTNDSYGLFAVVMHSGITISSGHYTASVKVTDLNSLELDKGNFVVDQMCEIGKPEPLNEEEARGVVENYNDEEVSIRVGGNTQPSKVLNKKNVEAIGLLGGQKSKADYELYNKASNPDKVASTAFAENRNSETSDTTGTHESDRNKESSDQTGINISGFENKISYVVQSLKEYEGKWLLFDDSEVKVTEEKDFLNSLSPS
The data set can be described thus: EMSA; 300 nM USP1; strongest shift; 5 mM MgCl2, 0.1 M KCl, on ice; not disrupted by ML323 (FIG. 11C). The note with it: tags: SF9-made or R&D systems E564; label: Cy3; fork with non-complementary single-stranded arms. How it is done:
(§1) Recombinant USP1 and UAF1 proteins from R&D systems (E564, E566) were used for some electromobility shift assays and in vitro deubiquitination assays. Electromobility shift assays were performed by pre-incubating fluorophore (Cy3)-tagged DNA and purified protein in binding buffer (20 mM Hepes (pH 7.6), 0.1M KCl, 5 mM MgCl2, 3% (v/v) glycerol, 0.25 mg/ml BSA, 0.05 mM EDTA, 0.5 mM DTT, 0.01% (v/v) NP-40) for 30 min on ice. Samples were then loaded onto 6% polyacrylamide gels and ran at 65V in 0.5× TBE for 135 min at 4° C. Gels were visualized using the LAS-4000 imaging system (GE Healthcare Life Sciences, Pittsburgh, Pa.). DNA used for Ub-AMC, Ub-CHOP2 and electromobility shift assay were 40 bp in length and were designed to have minimal potential of secondary structure formation. The sequences are as follows:
(§2) Since UAF1 has DNA binding activity, USP1 might also bind DNA and thereby stabilize replication forks. To test this hypothesis, DNA gel shift assays were performed with purified UAF1 protein with or without purified USP1 protein to analyze direct DNA binding activity. Purified proteins were incubated with either single strand DNA, double strand DNA, or fork DNA. The UAF1 protein and the USP1/UAF1 complex generated a reproducible gel shift of all three DNA templates.
Background: A gel shift assay detects complexes by their altered migration in electrophoresis.

For a further data set, the target named is USP12 (UniProt O75317 SEQ:1-370). Briefly: EMSA; 300 nM USP12. The following applies: label: Cy3. How it is done: as §1
USP1, USP12, and USP46 are related DUB proteins which bind and are stimulated by UAF1 (20, 23, 24, 31, 32). All three proteins contain a conserved UAF1 binding site, localized to a zinc finger region of each polypeptide (FIG. 10A). These USPs bind to a discrete WD40 domain of UAF1 (23, 24). Of the three proteins, USP1 is the largest protein, as shown by the sequence alignment with USP12 and USP46 (FIG. 10C).

The next data set addresses UAF1 (WDR48) (UniProt Q8TAF3 Q8TAF3:1-677). Briefly: EMSA; 300 nM UAF1. The following applies: tags: SF9-made or R&D systems E566, label: Cy3. How it is done: as §1, §2
For another data set, the target named is USP1/UAF1 complex (UniProt O94782;Q8TAF3 O94782:1-785,Q8TAF3:1-677). Briefly: EMSA; 100 nM USP1 + 300 nM UAF1. The note with it: tags: SF9-made, R&D systems or Boston Biochem, label: Cy3. How it is done:
as §1, §2

The mark [1] stands for this setting: fork with non-complementary single-stranded arms.

Chain of USP1/UAF1 complex (Q8TAF3 whole entry, one chain of several): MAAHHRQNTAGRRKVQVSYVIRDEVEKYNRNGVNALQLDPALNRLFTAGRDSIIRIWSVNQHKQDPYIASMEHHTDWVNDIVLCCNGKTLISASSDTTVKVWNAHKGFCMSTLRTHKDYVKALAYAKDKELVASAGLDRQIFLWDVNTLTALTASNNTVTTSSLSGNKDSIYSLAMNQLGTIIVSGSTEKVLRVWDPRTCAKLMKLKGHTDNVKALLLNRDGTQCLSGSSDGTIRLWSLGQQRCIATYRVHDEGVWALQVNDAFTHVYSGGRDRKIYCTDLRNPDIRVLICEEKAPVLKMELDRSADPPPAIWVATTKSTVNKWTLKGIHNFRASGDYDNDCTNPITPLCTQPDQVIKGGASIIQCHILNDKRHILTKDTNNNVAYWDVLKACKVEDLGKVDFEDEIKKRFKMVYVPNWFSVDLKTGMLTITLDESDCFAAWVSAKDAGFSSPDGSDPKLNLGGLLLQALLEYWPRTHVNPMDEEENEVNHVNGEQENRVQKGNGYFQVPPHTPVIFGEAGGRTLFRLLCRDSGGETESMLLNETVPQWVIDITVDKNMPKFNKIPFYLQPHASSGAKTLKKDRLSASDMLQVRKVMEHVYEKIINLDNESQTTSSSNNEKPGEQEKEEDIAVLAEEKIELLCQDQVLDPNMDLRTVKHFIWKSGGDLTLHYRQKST
Chain of UAF1 (WDR48) (Q8TAF3 whole entry, one chain of several): as above
Chain of USP12 (O75317 whole entry, the tested form may be a part): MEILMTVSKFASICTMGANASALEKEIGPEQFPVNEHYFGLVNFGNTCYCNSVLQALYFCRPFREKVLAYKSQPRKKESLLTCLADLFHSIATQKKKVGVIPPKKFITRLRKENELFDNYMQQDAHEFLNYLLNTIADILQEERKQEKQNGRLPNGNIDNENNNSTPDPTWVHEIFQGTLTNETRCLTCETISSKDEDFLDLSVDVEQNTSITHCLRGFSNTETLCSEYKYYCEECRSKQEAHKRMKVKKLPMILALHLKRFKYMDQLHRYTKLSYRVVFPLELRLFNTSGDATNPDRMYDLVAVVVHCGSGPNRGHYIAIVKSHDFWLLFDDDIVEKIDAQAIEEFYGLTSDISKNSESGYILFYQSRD

B1: 40-mer fork DNA (structured_DNA)
DNA 1: CCAGTGAATTGTTGCTCGGTACCTGCTAACGGTAATCGG
DNA 2: CAGCTATGGGACATTCGATACCGAGCAACAATTCACTGG
With B1, the binding result in the data set with USP1 is “binds”; with USP12 (setting [1]) it was “no binding”; with UAF1 (WDR48) (setting [1]), “binds”; with USP1/UAF1 complex (setting [1]), “binds”.

B2: 40-mer ssDNA (top) (ssDNA)
DNA: B1 DNA 1
Consider B2, for which the binding result was “no binding” in the data set with USP12, “binds” in the data set with UAF1 (WDR48) and “binds” with USP1/UAF1 complex.

B3: 40-mer dsDNA (dsDNA)
DNA 1: B1 DNA 1
DNA 2: CCGATTACCGTTAGCAGGTACCGAGCAACAATTCACTGG
B3: the figures for the binding result with USP12, in the data set with UAF1 (WDR48) and with USP1/UAF1 complex were “no binding”, “binds” and “binds”, respectively.
